Assay results: patent US20260193293A1, “PEPTIDES CAPABLE OF INHIBITING PROTEIN-PROTEIN INTERACTIONS AT GABAB1A SUBUNIT AND USES THEREOF” (UNIVERSITY OF COPENHAGEN, priority 2022, published 2026)
Each block holds one binder with its values, some of them ahead of it. Non-standard residues stand in square brackets, D forms with d. 2Nal = N[C@@H](Cc1ccc2ccccc2c1)C(=O)O; NMeD = CN[C@@H](CC(=O)O)C(=O)O

What was measured:
[1] = target: Sushi domains (SD1/2) protein of the GABAB1a (GB1a) subunit, recombinant; assay: FP competition
[2] = target: Sushi domains (SD1/2) protein of GABAB1a (GB1a); assay: FP competition vs TAMRA AJAP-1probe
Sushi domains (SD1/2) protein of GABAB1a (GB1a), sequence (Q9Z0U4 29-158): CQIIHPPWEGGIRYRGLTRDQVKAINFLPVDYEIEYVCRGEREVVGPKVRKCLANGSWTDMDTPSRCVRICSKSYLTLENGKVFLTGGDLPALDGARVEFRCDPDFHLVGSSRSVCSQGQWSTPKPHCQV

Sushi domains (SD1/2) protein of the GABAB1a (GB1a) subunit, recombinant, sequence (Q9Z0U4 29-158): as above

Ki [1]: 459 nM
Binder: Ac-EDDSDVWWGGADWD-NH2

Ki [1]: 314 nM
Binder: Ac-RRRRRRRREAAAKEDDDWIDWYDSDDD-NH2 [R8-RL-16 (…)]

Ki [2]: 38 nM
Binder: Ac-ETEFIAWGPHGDED-NH2

Ki [2]: 240 nM
Binder: Ac-ETEFIAWHPTGDED-NH2

Ki [1]: 4800 nM
Binder: Ac-EDDSDVDWGGADTD-NH2

Ki [1]: 270 nM
Binder: Ac-EDDSDVWWHGADTD-NH2

Ki [1]: 105 nM
Binder: Ac-RRRRRRRREAAAKEDDDWIDWGPTSDDD-NH2 [R8-RL-17 (…)]

Ki [1]: 140 nM
Binder: Ac-RRRRRRRRGGGGSEDDDWIDWGPTSDDD-NH2 [R8-FL-17 (…)]

Ki [2]: 43 nM
Binder: Ac-ETEFIAWGPTGDEN-NH2

Ki [1]: 332 nM
Binder: Ac-EDDSDVWWGPADTD-NH2

Ki [1]: 434 nM
B1: …(N-Me-D) (peptide)
peptide: Ac-PWAIVWGPTVSRE[NMeD]-NH2
SMILES: CC[C@H](C)[C@H](NC(=O)[C@H](C)NC(=O)[C@H](Cc1c[nH]c2ccccc12)NC(=O)[C@@H]1CCCN1C(C)=O)C(=O)N[C@H](C(=O)N[C@@H](Cc1c[nH]c2ccccc12)C(=O)NCC(=O)N1CCC[C@H]1C(=O)N[C@H](C(=O)N[C@H](C(=O)N[C@@H](CO)C(=O)N[C@@H](CCCNC(=N)N)C(=O)N[C@@H](CCC(=O)O)C(=O)N(C)[C@@H](CC(=O)O)C(N)=O)C(C)C)[C@@H](C)O)C(C)C

Ki [1]: 142 nM
Binder: Ac-EDDSFVWWGGADTD-NH2

Ki [2]: 32 nM
Binder: Ac-ETEFIAWGPSGDED-NH2

Ki [2]: 27 nM
Binder: Ac-ETEFIAWGPTGDDD-NH2

Ki [1]: 204 nM
Binder: Ac-EDDSDVWWGGSDTD-NH2

Ki [2]: 199 nM
Binder: Ac-ETEFIAWYPTGDED-NH2

Ki [2]: 62 nM
Binder: Ac-NTEFIAWGPTGDED-NH2

Ki [2]: 41 nM
Binder: Ac-ETEFIAWGPTGDEP-NH2

Ki [2]: 24 nM
Binder: Ac-ETEFIHWGPTGDED-NH2

Ki [1]: 401 nM
Binder: Ac-EDDSDIWWGGADTD-NH2

Ki [2]: 30 nM
Binder: Ac-ETEFIAWGPTHDED-NH2

Ki [2]: 41 nM
Binder: Ac-ETEFIAWGPTGDFD-NH2

Ki [2]: 18 nM
Binder: Ac-ETEYIAWGPTGDED-NH2

Ki [1]: 118 nM
Binder: Ac-EDDDWIDWYDSDDDGGGGSRRRRRRRR-NH2 [16-FL-R8 (…)]

Ki [1]: 65 nM
Binder: Ac-EDDDWIDWYDSDDDRRRRRRRR-NH2 [16-R8 (…)]

Ki [1]: 1520 nM
Binder: Ac-KDDSDVWWGGADTD-NH2

Ki [1]: 337 nM
Binder: Ac-EDDSDVWWGGADED-NH2

Ki [2]: 40 nM
Binder: Ac-ETEFIAWGPTGDEV-NH2

Ki [1]: 147 nM
Binder: Ac-EDDDWIDWGPTSDDDGGGGSRRRRRRRR-NH2 [17-FL-R8 (…)]

Ki [2]: 40 nM
Binder: Ac-ETEFIAWGPFGDED-NH2

Ki [2]: 9 nM
Binder: Ac-ETEFIDWGPTGDED-NH2 [peptide 26]

Ki [2]: 41 nM
Binder: Ac-ETEFIAWGPTGYED-NH2

Ki [1]: 58 nM
Binder: Ac-RRRRRRRREDDDWIDWGPTSDDD-NH2 [R8-17 (Ac-…-NH2)]

Ki [2]: 34 nM
Binder: Ac-ETEFIAWGPTGDPD-NH2

Ki [2]: 60 nM
Binder: Ac-ETEFIAWGPTGHED-NH2

Ki [1]: 123 nM
Binder: Ac-EDDDWIDWGPTSDDDRRRRRRRR-NH2 [17-R8 (…)]

Ki [1]: 257 nM
Binder: Ac-EDDWDVWWGGADTD-NH2

Ki [2]: 54 nM
Binder: Ac-ETEFIAWGPTGDWD-NH2

Ki [1]: 280 nM
Binder: Ac-RRRRRRRRGGGGSEDDDWIDWYDSDDD-NH2 [R8-FL-16 (…)]

Ki [2]: 34 nM
Binder: Ac-ETSFIAWGPTGDED-NH2

Ki [1]: 739 nM
Binder: Ac-EDDSDVWWGGADHD-NH2

Ki [1]: 255 nM
Binder: Ac-EDDSDVWWGGYDTD-NH2

Ki [1]: 243 nM
Binder: Ac-EDDSIVWWGGADTD-NH2

Ki [2]: 37 nM
Binder: Ac-ETEFIAWGPTGDEQ-NH2

Ki [1]: 139 nM
Binder: Ac-EDDDWIDWGPTSDDDEAAAKRRRRRRRR-NH2 [17-RL-R8 (…)]

Ki [1]: 191 nM
Binder: Ac-EDDSYVWWGGADTD-NH2

Ki [1]: 346 nM
Binder: Ac-EDDSDVWWGGHDTD-NH2

Ki [2]: 40 nM
Binder: Ac-ETEFIAWGPTGDYD-NH2

Ki [2]: 48 nM
Binder: Ac-ETEFIAWGPTGDEF-NH2

Ki [1]: 3600 nM
Binder: Ac-EDDSDVYWGGADTD-NH2

Ki [1]: 100 nM
Binder: Ac-EDDDWIDWYDSDDDEAAAKRRRRRRRR-NH2 [16-RL-R8 (…)]

Ki [1]: 951 nM
Binder: Ac-EDDSDVIWGGADTD-NH2

Ki [1]: 13 nM
B2: R4-21 (Ac-RRRREDDD(2Nala)…-NH2) (peptide)
peptide: Ac-RRRREDDD[2Nal]IDWGPTSDDD-NH2
SMILES: CC[C@H](C)[C@H](NC(=O)[C@H](Cc1ccc2ccccc2c1)NC(=O)[C@H](CC(=O)O)NC(=O)[C@H](CC(=O)O)NC(=O)[C@H](CC(=O)O)NC(=O)[C@H](CCC(=O)O)NC(=O)[C@H](CCCNC(=N)N)NC(=O)[C@H](CCCNC(=N)N)NC(=O)[C@H](CCCNC(=N)N)NC(=O)[C@H](CCCNC(=N)N)NC(C)=O)C(=O)N[C@@H](CC(=O)O)C(=O)N[C@@H](Cc1c[nH]c2ccccc12)C(=O)NCC(=O)N1CCC[C@H]1C(=O)N[C@H](C(=O)N[C@@H](CO)C(=O)N[C@@H](CC(=O)O)C(=O)N[C@@H](CC(=O)O)C(=O)N[C@@H](CC(=O)O)C(N)=O)[C@@H](C)O

Ki [2]: 54 nM
Binder: Ac-ETEFIAWGPTGDRD-NH2

Ki [2]: 35 nM
Binder: Ac-ETEWIAWGPTGDED-NH2

Ki [1]: 429 nM
Binder: Ac-EDDSDVWWDGADTD-NH2

Ki [2]: 87 nM
Binder: Ac-RTEFIAWGPTGDED-NH2

Ki [2]: 32 nM
Binder: Ac-ETEFIAWGPTRDED-NH2

Ki [2]: 26 nM
Binder: Ac-ETDFIAWGPTGDED-NH2

Ki [2]: 28 nM
Binder: Ac-EVEFIAWGPTGDED-NH2

Ki [2]: 30 nM
Binder: Ac-ETEFIVWGPTGDED-NH2
